Assays:
Assay in all cases: ELAA
[1] = target: Nucleocapsid (N) protein (SARS-CoV-2, UniProt P0DTC9 1-419)
[2] = target: 3C-like protease (3CLpro) (SARS-CoV-2, UniProt P0DTD1 3264-3569)
[3] = target: Spike receptor-binding domain (S-RBD-Fc) (SARS-CoV-2, UniProt P0DTC2 319-541)

| Binder | binding result [1] | binding result [2] | binding result [3] |
| --- | --- | --- | --- |
| N Aptamer 1 (88 nt) (ssDNA) DNA: GCAATGGTACGGTACTTCCGGATGCGGAAACTGGCTAATTGGTGAGGCTGGGGCGGTCGTGCAGCAAAAGTGCACGCTACTTTGCTAA | binds | – | – |
| N Aptamer 2 (78 nt) (ssDNA) DNA: GCAATGGTACGGTACTTCCGGATGCGGAAACTGGCTAATTGGTGAGGCTGGGGCGGTCGTGCAGCAAAAGTGCACGCT | binds | – | – |
| N Aptamer 3 (57 nt) (ssDNA) DNA: GCAATGGTACGGTACTTCCGGATGCGGAAACTGGCTAATTGGTGAGGCTGGGGCGGT | binds | – | – |
| GCAATGGTACGGTACTTCCGGATGCGGAAACTG (ssDNA) [Aptamer n.c. (33 nt)] | no binding | no binding | no binding |

Source: PMC7246297
